# Measurements published in US20210395381A1 (OSSIANIX, published 2021).
# Where a chain is given by its changes, count along the chain named.
# B1: Clone 8.139 (VNAR)
# VNAR: ARVDQTPQTITKETGESLTINCVLRDSNCALPSTYWYRKKSGSTNEESISKGGRYVETVNSGSKSFSLRINDLTVEDSGTYRCKVDAHLSSILRGCNYRKHDVYGDGTAVTVNA
# notes: VNAR on phage; Clone 8 framework
# B2: Clone 8.140 (VNAR)
# VNAR: B1 VNAR with D86I, H88I, L89T, S90L
# notes: as for B1
# B3: Clone 8.141 (VNAR)
# VNAR: B1 VNAR with D86I, H88K, L89A
# notes: as for B1
# B4: Clone 8.142 (VNAR)
# VNAR: B1 VNAR with D86I, H88Q, S90H, S91A, I92N
# notes: as for B1
# B5: Clone 8.143 (VNAR)
# VNAR: B1 VNAR with D86I, H88Q, S90H, S91C, I92M
# notes: as for B1
# B6: Clone 8.144 (VNAR)
# VNAR: B1 VNAR with D86I, H88Q, I92G, L93H
# notes: as for B1
# B7: Clone 8.145 (VNAR)
# VNAR: B1 VNAR with D86I, H88Q, R94Q, G95P, N97Y
# notes: as for B1
# B8: Clone 8.146 (VNAR)
# VNAR: B1 VNAR with D86I, H88Q, N97E, Y98A
# notes: as for B1
# B9: Clone 8.147 (VNAR)
# VNAR: B1 VNAR with D86I, H88Q, N97E, Y98G, R99D
# notes: as for B1
# B10: Clone 8.148 (VNAR)
# VNAR: B1 VNAR with D86I, H88Q, R99E, K100H
# notes: as for B1
# B11: Clone 32 (VNAR)
# VNAR: ARVDQTPQTITKETGESLTINCVLRDSNCALSSTYWYRKKSGSTNEENISKGGRYVETVNSGSKSFSLRINDLTVEDSGTYRCNVQDMLTPNDGQLWDVYGDGTAVTVNA
# notes: VNAR on phage
# B12: Clone 41 (VNAR)
# VNAR: ARVDQTPQTITKETGESLTINCVLRDSNCALSNLYWYRKKSGSTNEESISLGGRYVETVNSGSKSFSLRINDLTVEDSGTYRCKVTCEVALQPYYGQEPTQDVYGGGTVVTVNA
# notes: VNAR on phage
# B13: Clone 42 (VNAR)
# VNAR: ARVDQTPQTITKETGESLTINCVLRDSNCELSSTYWYRKKSGSTNEARISKGGRYVETVNSGSKSFSLRINDLTVEDSGTYRCKVRKALVQSQSCCQPLHRDVYGDGTAVTVNA
# notes: VNAR on phage
# B14: Clone 44 (VNAR)
# VNAR: ARVDQTPRSVTKETGESLTINCVLRDASYELGSTCWYRKKSGSTNEESISKGGRYVETVNSGSKSFSLRINDLTVEDGGTYRCGAGSVQRSTSQCDRLWSRCWRTRFKIAACGDGTAVTVNA
# notes: VNAR on phage
# B15: Clone 45 (VNAR)
# VNAR: AVDQTPQTITKETGESLTINCVLRDSNCALSNLYWYRKKSDSTNEESISKGGRYVETVNSGSKSFSLRINDLTVEDSGTYRCNVCWWFSSRCTTCDVYGDGTAVTVNA
# notes: VNAR on phage
# B16: Clone 46 (VNAR)
# VNAR: ARVDQTPRVTKETGESLTINCVLRDASYELGSTCWYRKKSGSTNEESISKGGRYVETVNSGSKSFSLRINDLTVEDGGTYRCGASGSQGQVYRCDRLTLCCLQMQWQVAACGDGTAVTVNA
# notes: VNAR on phage
# B17: Clone 47 (VNAR)
# VNAR: PRVDQTPQTITKETGESLTINCVLRDSNCALPSTYWYRKKSGSTNEENISKGGRYVETVNSGSKSFSLKINDLTVEDSGTYRCNVIINPLSCYYLQLQDVYGGGTAVTVNA
# notes: VNAR on phage
# B18: Clone 48 (VNAR)
# VNAR: ARVDQTPRSVTKETGESLTINCVLRDASYELGSTCWYRKKSGSTNEESISKGGRYVETVNSGSKSFSLRINDLTVEDGGTYRCGASFMLSHPGGCDSCVIMCQTRRQGVAACGDGTAVTVNA
# notes: VNAR on phage
# B19: Clone 49 (VNAR)
# VNAR: ARVDQTPQTITKETGESLTINCVLRDSNCALPSTYWYRKKSGSTNEESISKGGRYVETVNSGSKSFSLKINDLTVEDSGTYRCNVQGRAAYSGLVCDVYGGGTAVTVNA
# notes: VNAR on phage
# B20: Clone 57 (VNAR)
# VNAR: B19 VNAR with K69R, Q86R, R88F, A89K, A90Q, Y91C, S92Y, G93D, V95R, C96L
# notes: VNAR on phage
# B21: Clone 59 (VNAR)
# VNAR: ARVDQTPQTITKETGESLTINCVLRDSNCALPSTYWYRKKSGSTNEESISKGGRYVETVNSGSKSFSLRINDLTVEDSGTYRCNVSLQFCCLSFDVYGGGTAVTVNA
# notes: VNAR on phage
# B22: Clone 38 (VNAR)
# VNAR: B21 VNAR with R69K, S86R, L87I, Q88I, F89Q, L92V, F94Q, A102V
# notes: VNAR on phage
# B23: Clone 50 (VNAR)
# VNAR: B21 VNAR with G42D, E76K, S86L, L87I, F89C, C91S, L92P, S93T, F94C
# notes: VNAR on phage
# B24: Clone 33 (VNAR)
# VNAR: PRVDQTPQTITKETGESLTINCVLRDSNCALSNLYWYRKKSGSTNEESISKGGRYVETVNSGSKSFSLRINDLTVEDSGTYRCNVLVGMLSGCGFQRGDVYGGGTAVTVNA
# notes: VNAR on phage
# B25: Clone 51 (VNAR)
# VNAR: ARVDQTPQTITKETGESLTINCVLRDSNCALSSTLWYRTKSGSRNEESISKGGRYVETVNSGSKSFSLRINDLVVEDSGTYRCKVSHSGLCQYCHDLEDDVYGDGTAVTVNA
# notes: VNAR on phage
# B26: Clone 52 (VNAR)
# VNAR: PRVDQTPQTITKETGESLTINCVLRDSNCALSSTYWYRKKSGSTNEENISKGGRYVETVNSGSKSFSLRINDLTVEDSGTYRCNVAFFACQYKNDVYGGGTVVTVNA
# notes: VNAR on phage
# B27: Clone 53 (VNAR)
# VNAR: ARVDQTPQTITKETGESLTINCVLRDSNCALSSTYWYRKKSDSTNEESISKGGRYVETVNSGSKSFSLRINDLTVKDSGTYRCNVYLQDRPVCSPFNYDVYGGGTAVTVNA
# notes: VNAR on phage
# B28: Clone 54 (VNAR)
# VNAR: ARVDQTPQTITKETGESLTINCVLRDSNCALPITYWYRKKSGSTNEESISKGGRYVETVNSGSKSFSLRINDLTVKDSGTYRCNVGAQYCDREISDVYGDGTAVTVNA
# notes: VNAR on phage
# B29: Clone 55 (VNAR)
# VNAR: PRVDQTPQTITKETGESLTINCVLRDSNCALSSTLWYRTKSGSRNEESISKGGRYVETVNSGSKSFSLRINDLTVEDSGTYRCNVWCLTLGCSGKWDVYGGGTAVTVNA
# notes: VNAR on phage
# B30: Clone 56 (VNAR)
# VNAR: ARVDQTPQTITKETGESLTINCVLRDSNCALSSTYWYRKKSDSTNEESISKGGRYVETVNSGSKSFSLRINDLVVEDSGTYRCNVQSKEKLHCQVVVDVYGGGTAVTVNA
# notes: VNAR on phage
# B31: Clone 58 (VNAR)
# VNAR: ARVDQTPQTITKETGESLTINCVLRDSNCELSSTYWYRKKSGSTNEARISKGGRYVETVNSGSKSFSLRINDLTVEDSGTYRCNVGFSQSWGNSVGIVDVYGGGTAVTVNE
# notes: VNAR on phage
# B32: Clone 60 (VNAR)
# VNAR: ARVDQTPQTITKETGESLTINCVLRDSNCDLSRTYWYRKKSGSTNEESISKGGRYVETVNSGSKSFSLRINDLTVEDSGTYRCNVYNPGNGWAMYDVYGGGTAVTVNA
# notes: VNAR on phage
# B33: Clone 34 (VNAR)
# VNAR: PRVDQTPQTITKETGESLTINCVLRDSNCALSSTYWYRKKSGSTNEESISKGGRYVETVNSGSKSFSLRINDLTVEDSGTYRCNVSSNAHCDGRRRDVYGGGTAVTVNA
# notes: VNAR on phage
# B34: Clone 35 (VNAR)
# VNAR: ARVDQTPQTITKETGESLTINCVLRDSNCALSSTYWYRKKSDSTNEESISKGGRYVETVNSGSKSFSLRINDLTVKDSGTYRCNVSEDLQAICCWNDVYGDGTAVTVNA
# notes: VNAR on phage
# B35: Clone 36 (VNAR)
# VNAR: ARVDQTPQTITKETGESLTINCVLRDSNCALPSTYWYRKKSGSTNEESISKGGRYVETVNSGSKSFSLRINDLVVEDSGTYRCNVHCYGGDLHQLDVYGGGTAVTVNA
# notes: VNAR on phage
# B36: Clone 37 (VNAR)
# VNAR: B34 VNAR
# notes: VNAR on phage
# Legend:
# Experiment in all cases: phage ELISA
# [1] = molecular target: T1, recombinant mouse TfR-1 (mouse, UniProt Q62351 89-763)
# T1 construct: Recombinant protein coated at 1 ug/ml in the phage ELISA; also called mTfR1; mouse transferrin receptor-1
# T1 sequence (Q62351 89-763 limits assumed): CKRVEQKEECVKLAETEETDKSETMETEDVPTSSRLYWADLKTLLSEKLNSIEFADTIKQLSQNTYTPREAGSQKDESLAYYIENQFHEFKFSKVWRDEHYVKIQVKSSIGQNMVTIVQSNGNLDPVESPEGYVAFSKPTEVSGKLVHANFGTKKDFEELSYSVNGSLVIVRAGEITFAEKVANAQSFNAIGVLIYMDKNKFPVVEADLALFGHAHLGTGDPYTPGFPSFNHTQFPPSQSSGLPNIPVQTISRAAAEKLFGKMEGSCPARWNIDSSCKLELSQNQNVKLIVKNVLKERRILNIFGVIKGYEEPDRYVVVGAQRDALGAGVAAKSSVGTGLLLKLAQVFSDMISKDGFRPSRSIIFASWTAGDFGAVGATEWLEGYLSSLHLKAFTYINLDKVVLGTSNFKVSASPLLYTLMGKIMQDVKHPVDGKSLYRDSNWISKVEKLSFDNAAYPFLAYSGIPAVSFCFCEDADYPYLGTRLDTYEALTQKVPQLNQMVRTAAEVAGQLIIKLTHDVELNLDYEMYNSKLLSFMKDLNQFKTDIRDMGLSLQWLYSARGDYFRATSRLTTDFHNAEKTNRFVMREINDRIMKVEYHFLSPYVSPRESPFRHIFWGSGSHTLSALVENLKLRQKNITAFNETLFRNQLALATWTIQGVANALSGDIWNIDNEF
# [2] = molecular target: T2, recombinant human TfR-1 (human, UniProt P02786 89-760)
# T2 construct: Recombinant protein coated at 1 ug/ml in the phage ELISA; also called hTfR1; human transferrin receptor-1
# T2 sequence (P02786 89-760 limits assumed): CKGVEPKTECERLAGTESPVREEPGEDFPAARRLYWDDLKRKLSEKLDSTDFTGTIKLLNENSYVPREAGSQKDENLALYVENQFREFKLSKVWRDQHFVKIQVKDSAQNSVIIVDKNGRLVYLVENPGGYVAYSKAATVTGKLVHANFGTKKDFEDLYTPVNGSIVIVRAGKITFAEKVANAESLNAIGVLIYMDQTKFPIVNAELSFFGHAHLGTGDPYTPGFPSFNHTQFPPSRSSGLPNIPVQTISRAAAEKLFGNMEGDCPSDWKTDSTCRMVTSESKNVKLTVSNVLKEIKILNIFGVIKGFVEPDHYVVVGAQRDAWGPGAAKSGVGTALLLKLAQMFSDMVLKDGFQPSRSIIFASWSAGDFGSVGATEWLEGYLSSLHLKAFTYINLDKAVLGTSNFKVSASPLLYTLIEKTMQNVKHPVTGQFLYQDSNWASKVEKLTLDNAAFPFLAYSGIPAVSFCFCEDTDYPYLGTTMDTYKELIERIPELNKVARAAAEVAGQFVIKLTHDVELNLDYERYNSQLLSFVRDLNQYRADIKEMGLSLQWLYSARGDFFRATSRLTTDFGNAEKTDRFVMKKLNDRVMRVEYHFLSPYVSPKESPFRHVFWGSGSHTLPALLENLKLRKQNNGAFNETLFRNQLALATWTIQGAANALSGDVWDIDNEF
# [3] = molecular target: T3, recombinant mouse TfR-1 (mouse, UniProt Q62351 89-763)
# T3 construct: Bought recombinant protein; also called mTfR1
# Protocol: After the third round of selection, instead of pooling bacterial colonies, individual phagemid clones were grown in 1 ml of 2TY medium containing glucose and ampicillin in 96-well blocks and used to rescue the phages. After an overnight culturing, bacteria were spun down and an aliquot of the phage supernatant was sent for Sanger sequencing (Genewiz); VNAR CDR3 sequences were identified using BioEdit (a sequence alignment editor). Another aliquot was blocked with 2.5% milk for phage ELISAs. High-binding ELISA plates (Greiner) were coated with 1 μg/ml of recombinant human or mouse TfR-1. The plates were then blocked with 2.5% milk in PBST. Blocked phages were added to the blocked plates and the VNAR-phage clones binding to the antigens were detected with HRP-labelled anti-M13 coat protein antibodies (Sino Biological), and chromogenic TMB substrate (KLM)
# T3 sequence (Q62351 89-763 limits assumed): as the sequence (Q62351 89-763 limits assumed) above
Binder,A450 [1],A450 [2],binding result [3]
B1,0.045 A450,0.05 A450,–
B2,0.045 A450,0.053 A450,–
B3,0.045 A450,0.051 A450,–
B4,0.045 A450,0.052 A450,–
B5,0.045 A450,0.051 A450,–
B6,0.045 A450,0.05 A450,–
B7,0.045 A450,0.053 A450,–
B8,0.045 A450,0.045 A450,–
B9,0.045 A450,0.052 A450,–
B10,0.045 A450,0.049 A450,–
B11,–,–,no binding
B12,–,–,no binding
B13,–,–,no binding
B14,–,–,no binding
B15,–,–,no binding
B16,–,–,no binding
B17,–,–,no binding
B18,–,–,no binding

Binder,A450 [1],A450 [2],binding result [3]
B19,–,–,no binding
B20,–,–,no binding
B21,–,–,no binding
B22,–,–,no binding
B23,–,–,no binding
B24,–,–,no binding
B25,–,–,no binding
B26,–,–,no binding
B27,–,–,no binding
B28,–,–,no binding
B29,–,–,no binding
B30,–,–,no binding
B31,–,–,no binding
B32,–,–,no binding
B33,–,–,no binding
B34,–,–,no binding
B35,–,–,no binding
B36,–,–,no binding
